Source: ChEMBL document CHEMBL1275443, “Functional diversity among metallo-beta-lactamases: characterization of the CAR-1 enzyme of Erwinia carotovora” (2008)

Columns and labels:
[1] = substrate: CC(C)(O/N=C(\C(=O)N[C@@H]1C(=O)N2C(C(=O)[O-])=C(C[n+]3ccccc3)CS[C@H]12)c1csc(N)n1)C(=O)O; assay: (§1) Ratio of Kcat to Km for Pseudomonas maltophilia ULA-511 beta-Lactamase L-1; conditions: Stenotrophomonas maltophilia
[2] = substrate: CO/N=C(\C(=O)N[C@@H]1C(=O)N2C(C(=O)[O-])=C(C[N+]3(C)CCCC3)CS[C@H]12)c1csc(N)n1; assay: as §1; conditions: Stenotrophomonas maltophilia
[3] = substrate: CC1(C)S[C@@H]2[C@H](NC(=O)[C@H](N)c3ccccc3)C(=O)N2[C@H]1C(=O)O; assay: as §1; conditions: Stenotrophomonas maltophilia
[4] = substrate: CC1(C)S[C@@H]2[C@H](NC(=O)Cc3ccccc3)C(=O)N2[C@H]1C(=O)O; assay: as §1; conditions: Stenotrophomonas maltophilia
[5] = substrate: CC1(C)S[C@@H]2[C@H](NC(=O)[C@H](C(=O)O)c3ccsc3)C(=O)N2[C@H]1C(=O)O; assay: as §1; conditions: Stenotrophomonas maltophilia
[6] = substrate: CO/N=C(\C(=O)N[C@@H]1C(=O)N2C(C(=O)O)=C(COC(N)=O)CS[C@H]12)c1ccco1; assay: as §1; conditions: Stenotrophomonas maltophilia
[7] = substrate: CO[C@@]1(NC(=O)Cc2cccs2)C(=O)N2C(C(=O)O)=C(COC(N)=O)CS[C@@H]21; assay: as §1; conditions: Stenotrophomonas maltophilia
[8] = substrate: CCN1CCN(C(=O)N[C@@H](C(=O)N[C@@H]2C(=O)N3[C@@H]2SC(C)(C)[C@@H]3C(=O)O)c2ccccc2)C(=O)C1=O; assay: as §1; conditions: Stenotrophomonas maltophilia
[9] = substrate: C[C@@H](O)[C@H]1C(=O)N2C(C(=O)O)=C(SCCNC=N)C[C@H]12; assay: as §1; conditions: Stenotrophomonas maltophilia
[10] = substrate: CO/N=C(\C(=O)N[C@@H]1C(=O)N2C(C(=O)O)=C(COC(C)=O)CS[C@H]12)c1csc(N)n1; assay: as §1; conditions: Stenotrophomonas maltophilia
[11] = substrate: CO[C@@]1(NC(=O)C(C(=O)O)c2ccsc2)C(=O)N2[C@@H](C(=O)O)C(C)(C)S[C@@H]21; assay: as §1; conditions: Stenotrophomonas maltophilia
[12] = substrate: CC(C)(O/N=C(\C(=O)N[C@@H]1C(=O)N2C(C(=O)[O-])=C(C[n+]3ccccc3)CS[C@H]12)c1csc(N)n1)C(=O)O; assay: (§2) Ratio of Kcat to Km for Janthinobacterium lividum THIN-B
[13] = substrate: CO/N=C(\C(=O)N[C@@H]1C(=O)N2C(C(=O)[O-])=C(C[N+]3(C)CCCC3)CS[C@H]12)c1csc(N)n1; assay: as §2
[14] = substrate: CC1(C)S[C@@H]2[C@H](NC(=O)[C@H](N)c3ccccc3)C(=O)N2[C@H]1C(=O)O; assay: as §2
[15] = substrate: CO/N=C(\C(=O)N[C@@H]1C(=O)N2C(C(=O)O)=C(COC(N)=O)CS[C@H]12)c1ccco1; assay: as §2
[16] = substrate: CCN1CCN(C(=O)N[C@@H](C(=O)N[C@@H]2C(=O)N3[C@@H]2SC(C)(C)[C@@H]3C(=O)O)c2ccccc2)C(=O)C1=O; assay: as §2
[17] = substrate: C[C@@H](O)[C@H]1C(=O)N2C(C(=O)O)=C(SCCNC=N)C[C@H]12; assay: as §2
[18] = substrate: CO/N=C(\C(=O)N[C@@H]1C(=O)N2C(C(=O)O)=C(COC(C)=O)CS[C@H]12)c1csc(N)n1; assay: as §2
[19] = substrate: CC(C)(O/N=C(\C(=O)N[C@@H]1C(=O)N2C(C(=O)[O-])=C(C[n+]3ccccc3)CS[C@H]12)c1csc(N)n1)C(=O)O; assay: (§3) Ratio of Kcat to Km for Caulobacter crescentus beta-Lactamase CAU-1; conditions: Caulobacter vibrioides
[20] = substrate: CC1(C)S[C@@H]2[C@H](NC(=O)[C@H](N)c3ccccc3)C(=O)N2[C@H]1C(=O)O; assay: as §3; conditions: Caulobacter vibrioides
[21] = substrate: CC(=O)OCC1=C(C(=O)O)N2C(=O)[C@@H](NC(=O)Cc3cccs3)[C@H]2SC1; assay: as §3; conditions: Caulobacter vibrioides
[22] = substrate: CC1(C)S[C@@H]2[C@H](NC(=O)Cc3ccccc3)C(=O)N2[C@H]1C(=O)O; assay: as §3; conditions: Caulobacter vibrioides
[23] = substrate: CO/N=C(\C(=O)N[C@@H]1C(=O)N2C(C(=O)O)=C(COC(N)=O)CS[C@H]12)c1ccco1; assay: as §3; conditions: Caulobacter vibrioides
[24] = substrate: CCN1CCN(C(=O)N[C@@H](C(=O)N[C@@H]2C(=O)N3[C@@H]2SC(C)(C)[C@@H]3C(=O)O)c2ccccc2)C(=O)C1=O; assay: as §3; conditions: Caulobacter vibrioides
[25] = substrate: C[C@@H](O)[C@H]1C(=O)N2C(C(=O)O)=C(SCCNC=N)C[C@H]12; assay: as §3; conditions: Caulobacter vibrioides
[26] = substrate: CC(C)(O/N=C(\C(=O)N[C@@H]1C(=O)N2C(C(=O)[O-])=C(C[n+]3ccccc3)CS[C@H]12)c1csc(N)n1)C(=O)O; assay: (§4) Ratio of Kcat to Km for Chryseobacterium meningosepticum beta-Lactamase GOB-1; conditions: Elizabethkingia meningoseptica
[27] = substrate: CO/N=C(\C(=O)N[C@@H]1C(=O)N2C(C(=O)[O-])=C(C[N+]3(C)CCCC3)CS[C@H]12)c1csc(N)n1; assay: as §4; conditions: Elizabethkingia meningoseptica
[28] = substrate: CC(=O)OCC1=C(C(=O)O)N2C(=O)[C@@H](NC(=O)Cc3cccs3)[C@H]2SC1; assay: as §4; conditions: Elizabethkingia meningoseptica
[29] = substrate: CC1(C)S[C@@H]2[C@H](NC(=O)Cc3ccccc3)C(=O)N2[C@H]1C(=O)O; assay: as §4; conditions: Elizabethkingia meningoseptica
[30] = substrate: CC1(C)S[C@@H]2[C@H](NC(=O)[C@H](C(=O)O)c3ccsc3)C(=O)N2[C@H]1C(=O)O; assay: as §4; conditions: Elizabethkingia meningoseptica
[31] = substrate: CO/N=C(\C(=O)N[C@@H]1C(=O)N2C(C(=O)O)=C(COC(N)=O)CS[C@H]12)c1ccco1; assay: as §4; conditions: Elizabethkingia meningoseptica
[32] = substrate: CO[C@@]1(NC(=O)Cc2cccs2)C(=O)N2C(C(=O)O)=C(COC(N)=O)CS[C@@H]21; assay: as §4; conditions: Elizabethkingia meningoseptica
[33] = substrate: CCN1CCN(C(=O)N[C@@H](C(=O)N[C@@H]2C(=O)N3[C@@H]2SC(C)(C)[C@@H]3C(=O)O)c2ccccc2)C(=O)C1=O; assay: as §4; conditions: Elizabethkingia meningoseptica
[34] = substrate: C[C@@H](O)[C@H]1C(=O)N2C(C(=O)O)=C(SCCNC=N)C[C@H]12; assay: as §4; conditions: Elizabethkingia meningoseptica
[35] = substrate: CO/N=C(\C(=O)N[C@@H]1C(=O)N2C(C(=O)O)=C(COC(C)=O)CS[C@H]12)c1csc(N)n1; assay: as §4; conditions: Elizabethkingia meningoseptica

B1: Beta-lactamase L1 (Stenotrophomonas maltophilia), P52700 (protein)
chain: MRSTLLAFALAVALPAAHTSAAEVPLPQLRAYTVDASWLQPMAPLQIADHTWQIGTEDLTALLVQTPDGAVLLDGGMPQMASHLLDNMKARGVTPRDLRLILLSHAHADHAGPVAELKRRTGAKVAANAESAVLLARGGSDDLHFGDGITYPPANADRIVMDGEVITVGGIVFTAHFMAGHTPGSTAWTWTDTRNGKPVRIAYADSLSAPGYQLQGNPRYPHLIEDYRRSFATVRALPCDVLLTPHPGASNWDYAAGARAGAKALTCKAYADAAEQKFDGQLAKETAGAR
Which results are given for B1?
kcat/Km [1]: 1.8 ×10⁵ /M/s; kcat/Km [2]: 1.69 ×10⁴ /M/s; kcat/Km [3]: 4.4 ×10⁶ /M/s; kcat/Km [4]: 2.2 ×10⁷ /M/s; kcat/Km [5]: 2.7 ×10⁶ /M/s; kcat/Km [6]: 2.7 ×10⁶ /M/s; kcat/Km [7]: 5.5 ×10⁵ /M/s; kcat/Km [8]: 7 ×10⁶ /M/s; kcat/Km [9]: 7.3 ×10⁵ /M/s; kcat/Km [10]: 2.6 ×10⁶ /M/s; kcat/Km [11]: 1.2 ×10⁶ /M/s

B2: THIN-B proetin (Janthinobacterium lividum), Q9AEF9 (protein)
chain: MTLLAKLMLATVATMSAATVQAKTPAPKPDTPVDCDSCKAWNGEVTPFNVFGNTWYVGTAGLSAVLVTSPQGHVLLDGALPQSAPLIIANIAALGFRIEDVKFILNSHAHWDHAGGIAALQAASGATVVASASGALGLQSGTNGKDDPQFQAKPVVHVAKVEKVKVVGEGDAIKLGPLNLTAHMTPGHTPGATTWTWTSCEGQRCLDVVYADSLNPYSSGDFTYTGKGDGPDISASFAASIAKVAALPCDIILSVHPDSTGVLDKAAKRSGEHNPFIDANACRAYAATADAMLTKRLAKERGVALPAAAPAAQHAH
With B2 as the protein, how does the kcat/Km [12] read?
The kcat/Km was 1.4 ×10⁵ /M/s.

And the kcat/Km [13]?
The kcat/Km was 7.9 ×10³ /M/s.

And the kcat/Km [14]?
The kcat/Km was 3.7 ×10⁵ /M/s.

And the kcat/Km [15]?
Its kcat/Km is 2.8 ×10⁶ /M/s.

What about the kcat/Km [16] of the same protein?
The kcat/Km was 2 ×10⁵ /M/s.

And the kcat/Km [17]?
Its kcat/Km is 1.5 ×10⁶ /M/s.

What about the kcat/Km [18] of the same protein?
Its kcat/Km is 2 ×10⁶ /M/s.

B3: Metallo-beta-lactamase (Caulobacter vibrioides), Q8KKG1 (protein)
chain: MKRLILAAAASLLALASAAHADDMPANWTKPTKPYRVVGNIYYVGTEGISSWLITSSEGHVVLDGGPNAETGKLVERNITALGFQLADVKILINTHAHYDHAGGLAQLKADTGAKLWISRDDAPAMAAGHHIGDNIYGPTPMPAAKPDRSFGDQTKLKLGEIAMVAHLTPGHTIGCTSWTTAVVEKGRPLTVTFPCSLSVAGNVLVGNKTHRTIVADYRASFAKLRAIPTDVMLPAHEEQGNLLAKRQKQLRGDPNAFVDPGELARFVDASEAAFNKELARQQAAGPNR
What does the source list for B3?
kcat/Km [19]: 2 ×10³ /M/s; kcat/Km [20]: 5 ×10⁵ /M/s; kcat/Km [21]: 4.3 ×10⁵ /M/s; kcat/Km [22]: 4.5 ×10⁵ /M/s; kcat/Km [23]: 1.4 ×10⁴ /M/s; kcat/Km [24]: 5.7 ×10⁵ /M/s; kcat/Km [25]: 2 ×10⁵ /M/s

B4: GOB-1 metallo-beta-lactamase (Elizabethkingia meningoseptica), A4GRB7 (protein)
chain: MRNFATLFFMFICLGLNAQVVKEPENMPKEWNQTYEPFRIAGNLYYVGTYDLASYLIVTDKGNILINTGTAESLPIIKANIQKLGFNYKDIKILLLTQAHYDHTGALQDLKTETGAKFYADKADADVLRTGGKSDYEMGKYGVTFKPVTPDKTLKDQDKITLGNTILTLLHHPGHTKGSCSFIFETKDEKRKYRVLIANMPSVIVDKKFSEVTAYPNIQSDYAYTFKAMKNLDFDLWVASHASQFDLHEKRKEGDPYNPQLFMDKQSYFQNLNDLEKSYLDKIKKDSQDK
How did the kcat/Km [26] turn out when B4 was run?
Its kcat/Km is 7.6 ×10⁵ /M/s.

And the kcat/Km [27]?
The kcat/Km was 2 ×10⁵ /M/s.

And the kcat/Km [28]?
Its kcat/Km is 6.7 ×10⁵ /M/s.

What about the kcat/Km [29] of the same protein?
The kcat/Km was 1.9 ×10⁷ /M/s.

What about the kcat/Km [30] of the same protein?
Its kcat/Km is 5.2 ×10⁵ /M/s.

And the kcat/Km [31]?
Its kcat/Km is 9.8 ×10⁵ /M/s.

And the kcat/Km [32]?
Its kcat/Km is 2.5 ×10⁵ /M/s.

And the kcat/Km [33]?
The kcat/Km was 1.7 ×10⁶ /M/s.

What about the kcat/Km [34] of the same protein?
Its kcat/Km is 6.6 ×10⁵ /M/s.

And the kcat/Km [35]?
The kcat/Km was 8.5 ×10⁵ /M/s.
